This note sets out measurements from patent publication US5928893.

The target in assay [1] is human 4-1BB on T cells (human) (UniProt Q07011). The assay is described as follows: flow cytometry, PBL CD8+ T cells, rheumatoid arthritis patient 2. In general terms: In flow cytometry, cells or beads pass a laser one at a time.
The target is the same in assay [2].
For assay [3] the target is unchanged. In words: flow cytometry, PBL CD4+ T cells, rheumatoid arthritis patient 2.
Assay [4] has the same target. The assay is described as follows: flow cytometry, human CD8+ T cells activated with Con A for 24 hours.
The target is the same in assay [5]. The assay is described as follows: flow cytometry, PBL CD8+ T cells, rheumatoid arthritis patient.
For assay [6] the target is unchanged. The assay is described as follows: flow cytometry, human CD4+ T cells activated with Con A for 24 hours.
The target is the same in assay [7]. In words: flow cytometry, normal (non-activated) human CD8+ T cells.
For assay [8] the target is unchanged. In words: flow cytometry, synovial lymphocyte CD8+ T cells, rheumatoid arthritis patient 2.
For assay [9] the target is unchanged. The assay is described as follows: flow cytometry, synovial lymphocyte CD8+ T cells, rheumatoid arthritis patient.
Assay [10] has the same target. In words: flow cytometry, PBL CD4+ T cells, rheumatoid arthritis patient.
Assay [11] has the same target. The assay is described as follows: flow cytometry, synovial lymphocyte CD4+ T cells, rheumatoid arthritis patient.
For assay [12] the target is unchanged. The assay is described as follows: flow cytometry, normal (non-activated) human CD4+ T cells.
The target is the same in assay [13]. The assay is described as follows: flow cytometry, synovial lymphocyte CD4+ T cells, rheumatoid arthritis patient 2.

For monoclonal antibody 4B4-1-1, the % of T Cells Showing Reactivity with 4B4-1-1 came to 43.5% in assay [1]; 20% in assay [3]; 12.7% in [5]; 42.4% in assay [8]; 68.1% in assay [9]; 2.2% in [10]. Further, the % of T Cells Showing Reactivity with 4B4-1-1 in assay [11] worked out at 11.3%; in assay [13] it was 38%. In addition, in assay [2], the suppression rate (%) of one way-allogeneic mixed lymphocyte reaction (3H-thymidine uptake) was determined as 67%. Besides, the % of CD8+ T cells showing positive responses in assay [4] worked out at 89%; in [7], 36%. In addition, the % of CD4+ T cells showing positive responses in assay [6] is 72%; in [12] it was 17%.
